In patent publication US7250304B2, “Functional assay of high-density lipoprotein” (The Regents of the University of California, priority 2000, dated 2007):

What was measured:
[1] = system: Ox-PAPC, POVPC, PGPC, PEIPC; format: cell-based, human
[2] = system: human artery wall cell cocultures; assay: LDL oxidation by human artery wall cell cocultures (lipid hydroperoxides); format: cell-based
Procedure: (§1) The wells of the microtiter plates were treated with 0.1% gelatin at 37° C. overnight. HASMC were added at a confluent density of 1×10^5 cells/cm^2. Cells were cultured for 2 d at which time they had covered the entire surface of the well and had produced a substantial amount of extracellular matrix. HAEC were subsequently added at 2×10^5 cells/cm^2 and were allowed to grow forming a complete monolayer of confluent HAEC in 2 d. In all experiments, HAEC and autologous HASMC (from the same donor) were used at passage levels of four to six.
In general, the cocultures were treated with native LDL (250 μg/ml) in the absence or presence of HDL for 8 h. The supernatants were collected and used for determination of lipid hydroperoxide levels. The cocultures were subsequently washed and fresh culture medium 199 (M199) without any additions was added and incubated for an additional 8 hrs. This allowed the collection of monocyte chemotactic activity released by the cells as a result of stimulation by the oxidized LDL. At the end of incubation, the supernatants were collected from cocultures, diluted 40-fold, and assayed for monocyte chemotactic activity. […] The number of migrated monocytes was determined microscopically and expressed as the mean±SD of 12 standardized high power fields counted in quadruple wells.
Statistical significance was determined by model 1 ANOVA. […]

[3] = system: human artery wall cell cocultures; assay: Monocyte chemotaxis assay on coculture conditioned medium; format: cell-based; details: cocultures incubated 8 hrs with agent, agent removed before LDL
Procedure: as §1
Monocytes were isolated using a modification of the Recalde method as previously described (Fogelman et al. (1988) J. Lipid Res. 29: 1243-1247) from the blood of normal volunteers after obtaining written consent under a protocol approved by the human research subject protection committee of the University of California, Los Angeles.
In general, the cocultures were treated with native LDL (250 μg/ml) in the absence or presence of HDL for 8 h. The supernatants were collected and used for determination of lipid hydroperoxide levels. The cocultures were subsequently washed and fresh culture medium 199 (M199) without any additions was added and incubated for an additional 8 hrs. […] The number of migrated monocytes was determined microscopically and expressed as the mean±SD of 12 standardized high power fields counted in quadruple wells.

B1: PON: purified human paraoxonase, HDL associated enzyme (protein, UniProt P27169 2-355, looked up)
Serum …: AKLIALTLLGMGLALFRNHQSSYQTRLNALREVQPVELPNCNLVKGIETGSEDLEILPNGLAFISSGLKYPGIKSFNPNSPGKILLMDLNEEDPTVLELGITGSKFDVSSFNPHGISTFTDEDNAMYLLVVNHPDAKSTVELFKFQEEEKSLLHLKTIRHKLLPNLNDIVAVGPEHFYGTNDHYFLDPYLQSWEMYLGLAWSYVVYYSPSEVRVVAEGFDFANGINISPDGKYVYIAELLAHKIHVYEKHANWTLTPLKSLDFNTLVDNISVDPETGDLWVGCHPNGMKIFFYDSENPPASEVLRIQNILTEEPKVTQVYAENGTVLQGSTVASVYKGKLLIGTVFHKALYCEL
- biologic activity (induction of monocyte chemotactic activity) of Ox-PAPC, POVPC, PGPC, PEIPC after incubation with enzyme [1]: destruction of the biologic activity of each
- ability of pretreated artery wall cocultures to oxidize LDL ([2]; cocultures incubated 8 hrs with agent, agent removed before LDL 250 μg/ml): rendered the artery wall cells incapable of oxidizing IDL
- oxidation by artery wall cells of LDL pre-incubated with the agent ([2]; human LDL incubated with agent, re-isolated, then cocultures 8 hrs): rendered the LDL resistant to oxidation
- LDL-induced monocyte chemotaxis in pretreated cocultures [3]: prevented LDL-induced monocyte chemotaxis
